Target: 1-acyl-sn-glycerol-3-phosphate acyltransferase alpha (AGPAT1), endogenous in human cells (human (endogenous in Huh7, HAP1, ERMS)) (UniProt Q99943)
Assay: immunostaining of cells or tissue

Chain of UniProt Q99943 (Q99943 27-283): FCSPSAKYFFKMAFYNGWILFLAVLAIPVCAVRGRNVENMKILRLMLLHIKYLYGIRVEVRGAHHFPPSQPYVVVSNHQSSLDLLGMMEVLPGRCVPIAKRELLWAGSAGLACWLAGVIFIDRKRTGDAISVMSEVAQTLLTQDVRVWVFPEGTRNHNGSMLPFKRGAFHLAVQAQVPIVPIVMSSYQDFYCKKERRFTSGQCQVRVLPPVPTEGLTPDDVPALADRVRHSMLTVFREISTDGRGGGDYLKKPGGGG

Chikungunya virus (CHIKV) particles, sucrose gradient-purified, strain IND-06-Guj (complex)
reduction of CHIKV binding (MIFD) in AGPAT1 KO against WT HAP1 cells: 85%
